{"source": "patent EP4792821A2", "about": "(Beijing Youcare Kechuang Pharmaceutical Technology Co., Ltd., dated 2026)", "note": "*1 amine or outer side, *2 acyl side, *3 side chain or, on linkers, in order; H or OH if unused. Side-chain parts run from the residue outwards. The star is where a group is joined. Succinyl(4-O-cholesteryl) = CC(C)CCC[C@@H](C)[C@H]1CC[C@H]2[C@@H]3CC=C4C[C@@H](OC(=O)CCC(=O)*)CC[C@]4(C)[C@H]3CC[C@]12C; Suc = O=C(CCC(=O)[*:2])[*:1]"}
{"target": "F protein of RSV A long virus strain (Respiratory Syncytial Virus (RSV) A …, UniProt P12568 26-574)", "sequence (P12568 26-574)": "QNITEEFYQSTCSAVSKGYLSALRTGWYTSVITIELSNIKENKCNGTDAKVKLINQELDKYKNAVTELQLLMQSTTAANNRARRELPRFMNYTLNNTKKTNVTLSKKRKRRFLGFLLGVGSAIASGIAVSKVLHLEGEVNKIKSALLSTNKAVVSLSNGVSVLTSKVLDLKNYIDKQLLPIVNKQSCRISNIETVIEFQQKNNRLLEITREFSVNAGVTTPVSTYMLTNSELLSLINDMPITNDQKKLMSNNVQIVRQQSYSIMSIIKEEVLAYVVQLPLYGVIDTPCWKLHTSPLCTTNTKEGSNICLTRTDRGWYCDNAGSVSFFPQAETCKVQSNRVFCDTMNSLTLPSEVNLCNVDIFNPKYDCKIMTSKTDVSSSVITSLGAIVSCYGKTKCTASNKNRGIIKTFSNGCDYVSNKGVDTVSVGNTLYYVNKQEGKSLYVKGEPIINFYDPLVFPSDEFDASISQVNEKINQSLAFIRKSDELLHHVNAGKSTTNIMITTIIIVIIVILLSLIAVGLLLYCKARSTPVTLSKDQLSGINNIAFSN", "test": "cell-based or functional assay", "units": {"IC50/nM, plaque reduction, RSV A long on HEp-2 cells (Table 2, Cell fusion inhibition activity)": "nM"}}
{"binder": "Ac-LVKKIDEFDASISQVNEKINQSLEEIRKSDELLHNVGSGSGK([Suc-Succinyl(4-O-cholesteryl)])-NH2", "note": "[Compound 29]", "IC50/nM, plaque reduction, RSV A long on HEp-2 cells (Table 2, Cell fusion inhibition activity)": 19.3}
{"binder": "Ac-FDASIEEVNRRIEESLRRIEESDRRLEEVNAEAAAKK([Suc-Succinyl(4-O-cholesteryl)])-NH2", "note": "[Compound 42]", "IC50/nM, plaque reduction, RSV A long on HEp-2 cells (Table 2, Cell fusion inhibition activity)": 11.8}
{"binder": "Ac-WDEFDASIEEVNRRIEESLRRIEESDRRLEEVEAAAKK([Suc-Succinyl(4-O-cholesteryl)])-NH2", "note": "[Compound 43]", "IC50/nM, plaque reduction, RSV A long on HEp-2 cells (Table 2, Cell fusion inhibition activity)": 18.3}
{"binder": "Ac-YDELVFDASQVNEKINQSLEKIRKSDELLHNVEAAAKK([Suc-Succinyl(4-O-cholesteryl)])-NH2", "note": "[Compound 30]", "IC50/nM, plaque reduction, RSV A long on HEp-2 cells (Table 2, Cell fusion inhibition activity)": 14.9}
{"binder": "Ac-WDEFDKKIEEVNKKIEESLKKIEESDKKLEEVNEAAAKK([Suc-Succinyl(4-O-cholesteryl)])-NH2", "note": "[Compound 41]", "IC50/nM, plaque reduction, RSV A long on HEp-2 cells (Table 2, Cell fusion inhibition activity)": 14.8}
{"binder": "Ac-DEFDASISQVNEKINQSLEEIRKSDELLHNEAAAKK([Suc-Succinyl(4-O-cholesteryl)])-NH2", "note": "[Compound 28]", "IC50/nM, plaque reduction, RSV A long on HEp-2 cells (Table 2, Cell fusion inhibition activity)": 12.4}
{"binder": "Ac-WDEFDKKIEEVNKKIEESLKKIEESDKKLEEVNAEAAAKK([Suc-Succinyl(4-O-cholesteryl)])-NH2", "note": "[Compound 40]", "IC50/nM, plaque reduction, RSV A long on HEp-2 cells (Table 2, Cell fusion inhibition activity)": 11.7}
{"binder": "Ac-WDEFDASISQVNEKINQSLEEIRKSDELLHNVNALEAAAKK([Suc-Succinyl(4-O-cholesteryl)])-NH2", "note": "[Compound 38]", "IC50/nM, plaque reduction, RSV A long on HEp-2 cells (Table 2, Cell fusion inhibition activity)": 14.6}
{"target": "F protein of hMPV virus strain A2 (human metapneumovirus (hMPV) A2)", "test": "cell-based or functional assay", "units": {"EC50 (nM), plaque reduction, hMPV A2 on Vero cells": "nM"}}
{"binder": "Ac-LVKKIDEFDASISQVNEKINQSLEEIRKSDELLHNVGSGSGK([Suc-Succinyl(4-O-cholesteryl)])-NH2", "note": "[Compound 29]", "EC50 (nM), plaque reduction, hMPV A2 on Vero cells": 41.6}
{"binder": "Ac-FDASIEEVNRRIEESLRRIEESDRRLEEVNAEAAAKK([Suc-Succinyl(4-O-cholesteryl)])-NH2", "note": "[Compound 42]", "EC50 (nM), plaque reduction, hMPV A2 on Vero cells": 26.1}
{"binder": "Ac-WDEFDASIEEVNRRIEESLRRIEESDRRLEEVEAAAKK([Suc-Succinyl(4-O-cholesteryl)])-NH2", "note": "[Compound 43]", "EC50 (nM), plaque reduction, hMPV A2 on Vero cells": 16.8}
{"binder": "Ac-YDELVFDASQVNEKINQSLEKIRKSDELLHNVEAAAKK([Suc-Succinyl(4-O-cholesteryl)])-NH2", "note": "[Compound 30]", "EC50 (nM), plaque reduction, hMPV A2 on Vero cells": 94.8}
{"binder": "Ac-WDEFDKKIEEVNKKIEESLKKIEESDKKLEEVNEAAAKK([Suc-Succinyl(4-O-cholesteryl)])-NH2", "note": "[Compound 41]", "EC50 (nM), plaque reduction, hMPV A2 on Vero cells": 11.7}
{"binder": "Ac-DEFDASISQVNEKINQSLEEIRKSDELLHNEAAAKK([Suc-Succinyl(4-O-cholesteryl)])-NH2", "note": "[Compound 28]", "EC50 (nM), plaque reduction, hMPV A2 on Vero cells": 58.6}
{"binder": "Ac-WDEFDKKIEEVNKKIEESLKKIEESDKKLEEVNAEAAAKK([Suc-Succinyl(4-O-cholesteryl)])-NH2", "note": "[Compound 40]", "EC50 (nM), plaque reduction, hMPV A2 on Vero cells": 13.8}
{"binder": "Ac-WDEFDASISQVNEKINQSLEEIRKSDELLHNVNALEAAAKK([Suc-Succinyl(4-O-cholesteryl)])-NH2", "note": "[Compound 38]", "EC50 (nM), plaque reduction, hMPV A2 on Vero cells": 128}
{"target": "F protein of hMPV virus strain B1 (human metapneumovirus (hMPV) B1)", "test": "cell-based or functional assay", "units": {"EC50 (nM), plaque reduction, hMPV B1 on Vero cells": "nM"}}
{"binder": "Ac-LVKKIDEFDASISQVNEKINQSLEEIRKSDELLHNVGSGSGK([Suc-Succinyl(4-O-cholesteryl)])-NH2", "note": "[Compound 29]", "EC50 (nM), plaque reduction, hMPV B1 on Vero cells": 11.1}
{"binder": "Ac-FDASIEEVNRRIEESLRRIEESDRRLEEVNAEAAAKK([Suc-Succinyl(4-O-cholesteryl)])-NH2", "note": "[Compound 42]", "EC50 (nM), plaque reduction, hMPV B1 on Vero cells": 10.1}
{"binder": "Ac-WDEFDASIEEVNRRIEESLRRIEESDRRLEEVEAAAKK([Suc-Succinyl(4-O-cholesteryl)])-NH2", "note": "[Compound 43]", "EC50 (nM), plaque reduction, hMPV B1 on Vero cells": 8.01}
{"binder": "Ac-YDELVFDASQVNEKINQSLEKIRKSDELLHNVEAAAKK([Suc-Succinyl(4-O-cholesteryl)])-NH2", "note": "[Compound 30]", "EC50 (nM), plaque reduction, hMPV B1 on Vero cells": 51.3}
{"binder": "Ac-WDEFDKKIEEVNKKIEESLKKIEESDKKLEEVNEAAAKK([Suc-Succinyl(4-O-cholesteryl)])-NH2", "note": "[Compound 41]", "EC50 (nM), plaque reduction, hMPV B1 on Vero cells": 9.46}
{"binder": "Ac-DEFDASISQVNEKINQSLEEIRKSDELLHNEAAAKK([Suc-Succinyl(4-O-cholesteryl)])-NH2", "note": "[Compound 28]", "EC50 (nM), plaque reduction, hMPV B1 on Vero cells": 13.8}
{"binder": "Ac-WDEFDKKIEEVNKKIEESLKKIEESDKKLEEVNAEAAAKK([Suc-Succinyl(4-O-cholesteryl)])-NH2", "note": "[Compound 40]", "EC50 (nM), plaque reduction, hMPV B1 on Vero cells": 7.47}
{"binder": "Ac-WDEFDASISQVNEKINQSLEEIRKSDELLHNVNALEAAAKK([Suc-Succinyl(4-O-cholesteryl)])-NH2", "note": "[Compound 38]", "EC50 (nM), plaque reduction, hMPV B1 on Vero cells": 16.6}
{"target": "F protein of hPIV Type 3 (hPIV3 C243) (human Parainfluenza Virus type 3 (hPIV3 …))", "test": "cell-based or functional assay", "units": {"EC50 (nM), plaque reduction, hPIV3 C243 on LLC-MK2 cells": "nM"}}
{"binder": "Ac-LVKKIDEFDASISQVNEKINQSLEEIRKSDELLHNVGSGSGK([Suc-Succinyl(4-O-cholesteryl)])-NH2", "note": "[Compound 29]", "EC50 (nM), plaque reduction, hPIV3 C243 on LLC-MK2 cells": 26.3}
{"binder": "Ac-FDASIEEVNRRIEESLRRIEESDRRLEEVNAEAAAKK([Suc-Succinyl(4-O-cholesteryl)])-NH2", "note": "[Compound 42]", "EC50 (nM), plaque reduction, hPIV3 C243 on LLC-MK2 cells": 18.9}
{"binder": "Ac-WDEFDASIEEVNRRIEESLRRIEESDRRLEEVEAAAKK([Suc-Succinyl(4-O-cholesteryl)])-NH2", "note": "[Compound 43]", "EC50 (nM), plaque reduction, hPIV3 C243 on LLC-MK2 cells": 16.1}
{"binder": "Ac-YDELVFDASQVNEKINQSLEKIRKSDELLHNVEAAAKK([Suc-Succinyl(4-O-cholesteryl)])-NH2", "note": "[Compound 30]", "EC50 (nM), plaque reduction, hPIV3 C243 on LLC-MK2 cells": 48.2}
{"binder": "Ac-WDEFDKKIEEVNKKIEESLKKIEESDKKLEEVNEAAAKK([Suc-Succinyl(4-O-cholesteryl)])-NH2", "note": "[Compound 41]", "EC50 (nM), plaque reduction, hPIV3 C243 on LLC-MK2 cells": 71.1}
{"binder": "Ac-DEFDASISQVNEKINQSLEEIRKSDELLHNEAAAKK([Suc-Succinyl(4-O-cholesteryl)])-NH2", "note": "[Compound 28]", "EC50 (nM), plaque reduction, hPIV3 C243 on LLC-MK2 cells": 54.4}
{"binder": "Ac-WDEFDKKIEEVNKKIEESLKKIEESDKKLEEVNAEAAAKK([Suc-Succinyl(4-O-cholesteryl)])-NH2", "note": "[Compound 40]", "EC50 (nM), plaque reduction, hPIV3 C243 on LLC-MK2 cells": 22.2}
{"binder": "Ac-WDEFDASISQVNEKINQSLEEIRKSDELLHNVNALEAAAKK([Suc-Succinyl(4-O-cholesteryl)])-NH2", "note": "[Compound 38]", "EC50 (nM), plaque reduction, hPIV3 C243 on LLC-MK2 cells": 26.4}
